Assay results reported in the supplement of paper PMC9170038.

Test system: MS2 coat protein
Experiment: apparent KD of MS2 coat protein; designed switch direction (-1 OFF switch, 1 ON switch): 1; higher = weaker reporter binding
Summary of the method: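 Each step of the titration lasted 0.8–1.5 h at the lowest concentration and 10–20 min at the highest. The protein, SNAP-549-labelled MS2 coat protein, went from 0.7 or 1.5 nM doubling to 3 µM over RNA switches transcribed on Illumina chips by stalled E. coli RNA polymerase. Normalised cluster fluorescence was curve-fitted, and the per-design median over clusters is given as apparent KD.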

[1] = Eterna round: R95, input ligand: FMN 200 uM
[2] = Eterna round: R95, input ligand: microRNA oligo, concentration not stated
[3] = Eterna round: R95, input ligand: none
[4] = input ligand: microRNA oligo, concentration not stated

| Sequence | apparent KD of MS2 coat protein [1] | apparent KD of MS2 coat protein [2] | apparent KD of MS2 coat protein [3] | apparent KD of MS2 coat protein (input ligand: FMN 200 uM) | apparent KD of MS2 coat protein [4] | apparent KD of MS2 coat protein (input ligand: none) |
| --- | --- | --- | --- | --- | --- | --- |
| AAGUUAAGCUUUUUGUUCUGCCUAUUCCAACAUGAGGAUCACCCAUGUAGUCUGACGAUUGUGUGUGUAGUUGAGAU [JR_SHM208A_Sub028] (puzzle: Sensor for hsa-mir-208a) | 0.0518 µM | 0.0635 µM | 0.0579 µM |  |  |  |
| UUUAAACAUGAGGAUCACCCAUGUUUUUUUAUGGGAGGAUAUCUAAGUUAAUUAUAUUAAGGAGAAGGCCUAUUUU [× ×•×ª×• ×ž×“×™× ×” × ×—×ª-04] (puzzle: Same State 1) |  | 0.124 µM |  |  |  |  |
| CGGCGCUGUCGAGAGGAUAUGCGGUGAUGGACAUGAGGAUCACCCAUGUUAGCGAUAGCAUCACGGUAGAAGGCUCUACGGCCUG [Soteed Omei mod 22] (puzzle: Same State 2) |  | 0.0523 µM |  |  |  |  |
| UCCUCAGUUUCACAGGAUAUGCGCUGAGUCACAUGAGGAUCACCCAUGUAGACGGAAAAUGUCGGGCAGAAGGGUGAGGCAUAAA [Diretibe] (puzzle: Same State 2) | 0.0572 µM | 0.117 µM | 4.57 µM |  |  |  |
| AAAAGACAUGAGGAUCACCCAUGUAUGAAAAGUACAGGAUAUCACGAGCUAAAGUGCGAGUGAGAAGGGUGAAAAU [Araceesge] (puzzle: Same State 1) | 0.0609 µM | 0.0419 µM | 0.0371 µM |  |  |  |
| CAAACUUAGUAGGAUAGGUACCCAGGAUGACAUGAGGAUCACCCAUGUAAGAGCUUUUUGCUCGUCAUUAACAGUUG [JR_SHM208a_Sub017] (puzzle: Sensor for hsa-mir-208a) | 0.0517 µM | 0.053 µM | 0.0783 µM |  |  |  |
| GCUCGAUGAACGUCCUACAUGAGGAUCACCCAUGUUCGUGGGCAGGAUAUUUACAUGCAGAGUGUAGAGAAGGGCCCAUCGAGC [SameState NG3 #64] (Eterna round: R96, puzzle: Same State NG 3) |  |  |  | 0.0678 µM | 0.0746 µM | 0.165 µM |
| AGCUAUUAAUCAGGAUAUGGUGACAUGAGGAUCACCCAUGUAUUGAUGAUUAAAUGUGGUCACUACCAGAAGGGAUUACUAACA [SameState NG2 #50] (Eterna round: R96, puzzle: Same State NG 2) |  |  |  | 0.0342 µM | 0.221 µM | 0.26 µM |
| UUAUUAUUUACAUGAGGAUCACCCAUGUUUUUAUGUCAGAGAUAGGAUAUAGAAGUCUCGUUUUACUAGAAGGAUCUUUUUAUU [JR_SSNG3_Sub083] (Eterna round: R96, puzzle: Same State NG 3) |  |  |  | 0.0212 µM | 0.0167 µM | 0.0228 µM |
| AAAAAACAUGAGGAUCACCCAUGUCGAAAGACAUGAGGAUAUGUGUGGAAACCAUACUAUACAGAAGGCAUAAAAA [SS1 - 1009] (Eterna round: R96, puzzle: Same State 1) |  |  |  | 0.0606 µM | 0.137 µM | 0.0968 µM |
| UUCGAGUUGCAAGGAUAUCUUAUUUAGAUUUUAAGAGAAGGUGCUUCACAGCUACAUGAGGAUCACCCAUGUCUUUCUUCUUAU [JR_SSNG1_Sub064] (Eterna round: R96, puzzle: Same State NG 1) |  |  |  |  | 0.0226 µM |  |
| CAAGGACGGACACAGGAUAUCCUCACCUACACAUGAGGAUCACCCAUGUCAUAAAAGAUGGUGCAGGAGAAGGGUGCGGCGUCAA [Zarelaesdi] (puzzle: Same State 2) | 0.00793 µM | 0.00832 µM | 0.00636 µM |  |  |  |
| AGUAGUUUAACAUGAGGAUCACCCAUGUAUUUUUCUGUAACCUAGGAUAUGGGCGUUGUAUUUAUCCAGAAGGAGGAUCGUUUA [JR_SSNG3_Sub048] (Eterna round: R96, puzzle: Same State NG 3) |  |  |  | 0.0303 µM | 0.0283 µM | 0.0311 µM |
| GUUAUACAUGAGGAUCACCCAUGUCAAUGUAGUCGAGGAUAUGGGUAGCCAUGAGGCGUACUAGAAGGCGAGGAGU [JL-ss1-3.19 ViennaUCT mod] (puzzle: Same State 1) | 0.13 µM | 0.0688 µM | 0.0815 µM |  |  |  |
| AGCUAUUAAUCAGGAUAUAGUGACAUGAGGAUCACCCAUGUAUUGAUGAUUAAAUGUGGUCACUACUAGAAGGGAUUACUAACA [SameState NG2 #49] (Eterna round: R96, puzzle: Same State NG 2) |  |  |  | 0.037 µM | 0.0514 µM | 0.0671 µM |
| AGAGUGUAUCCACAGGAUAUGCGAGCCGACACAUGAGGAUCACCCAUGUAGUCCUAAAGGGCUGAGCAGAAGGGUGGUAAGGCUC [Xelear] (puzzle: Same State 2) | 0.0317 µM | 0.169 µM | 0.285 µM |  |  |  |

| Sequence | apparent KD of MS2 coat protein [1] | apparent KD of MS2 coat protein [2] | apparent KD of MS2 coat protein [3] | apparent KD of MS2 coat protein (input ligand: FMN 200 uM) | apparent KD of MS2 coat protein [4] | apparent KD of MS2 coat protein (input ligand: none) |
| --- | --- | --- | --- | --- | --- | --- |
| GUUACAUGAGGAUCACCCAUGUAUGUGUGGGAGUAAGUGUCUUAGGAUAUCUAUGAUUUAAUUCAAGAGAAGGAAGAUUGUUGU [JMF's solution 85] (Eterna round: R96, puzzle: Same State NG 3) |  |  |  | 0.115 µM | 0.0707 µM | 0.0795 µM |
| GUUAAACAUGAGGAUCACCCAUGUAAUAAUAUGGGAGGAUAUCAGAAAUUAUGUAUUAAAUGAGAAGGCCUAAUUG [Mat - Same State 1 - Mod of Eli - D80] (puzzle: Same State 1) | 0.125 µM | 0.585 µM | 0.769 µM |  |  |  |
| UUAAUUUACUGAGGAUAUCGUGUCGACUGAGUUGACAUGAGGAUCACCCAUGUGAGAAGUGGUAUCGAGAAGGCAGUAUUCAUA [JR_SSNG2_Sub023] (Eterna round: R96, puzzle: Same State NG 2) |  |  |  | 0.0161 µM | 0.0289 µM | 0.042 µM |
| AGAACAUGACGAGGAUAUGGAACAUGAGGAUCACCCAUGUAUGUUCCAUAACGCGAAUAAAGAAUCCAGAAGGCGUCGUGAAGA [Mat - Same State NG 2 - JL mod - D32] (Eterna round: R96, puzzle: Same State NG 2) |  |  |  | 0.0345 µM | 0.116 µM | 0.147 µM |
| GCUCGAUGAGCUGUUUACAUGAGGAUCACCCAUGUAGAUGCGGAGGAUAUUUACGUGCUUUAUGUAGAGAAGGCCGUAUCGAGC [SameState NG3 #80] (Eterna round: R96, puzzle: Same State NG 3) |  |  |  | 0.014 µM | 0.0245 µM | 0.0241 µM |
| AAUCGUUUAAUAGGAUAUCGCUAUACAUGAGGAUCACCCAUGUUUACCACGCUGGUUUUUCGUACCGAGAAGGAUUCUGAUGAU [JL JR sub007 mod 8] (Eterna round: R96, puzzle: Same State NG 2) |  |  |  | 0.0366 µM | 0.0265 µM | 0.0399 µM |
| GCGAGCGUACUUGCUACAUGAGGAUCACCCAUGUUAACUGGACAGGAUAUGGUACCGUUUCGGUACCAGAAGGGUUCAUCAUGU [JL SSNG3 3.68] (Eterna round: R96, puzzle: Same State NG 3) |  |  |  | 0.306 µM | 0.245 µM | 0.665 µM |
| GGAGAACAUGAGGAUCACCCAUGUAGGCGUUAGCUAGGAUAUGCGGGAAGGAAGAGAGAAGCAGAAGGAGUAGGUA [JR_SS1_Sub031] (puzzle: Same State 1) | 0.0396 µM | 0.0644 µM | 0.08 µM |  |  |  |
| UUGAAGAAUUAAGGAUAUCGAGUCGUCUAAUUAAACAUGAGGAUCACCCAUGUGGGUUGUGGUAUCGAGAAGGUAAAUUACUAA [JR_SSNG2_Sub099] (Eterna round: R96, puzzle: Same State NG 2) |  |  |  | 0.0744 µM | 0.0653 µM | 0.0951 µM |
| UGAAUAGUGAUAGGAUAUACAUGAGGAAUCCUCGUAGAAGGAUCAUAACAUGAGGAUCACCCAUGUAGCGCUCGAAAGAGCGCA [Mat - Same State NG 1 - JL mod - D55] (Eterna round: R96, puzzle: Same State NG 1) |  |  |  | 0.244 µM | 0.207 µM | 0.0565 µM |
| GUUAAACAUGAGGAUCACCCAUGUCAAUGUAGUCGAGGAUAUGGGCAGCUGUGAGGCGUACUAGAAGGCGAAAAGG [Mat - Same State 1 - Mod of JL - D10] (puzzle: Same State 1) |  | 0.266 µM |  |  |  |  |
| AUGGGCAUGCUAGGAUAUUAUAGUAGGCAGCAAUGAGAAGGAGUAUCCCGUUGCUAUCACGCACCACAUGAGGAUCACCCAUGU [Eternabot solution 32] (Eterna round: R96, puzzle: Same State NG 1) |  |  |  | 0.0249 µM | 0.0195 µM | 0.0283 µM |
| GGCUGCGUUGUGAAGGAUAUCCGCGUCUGGACAUGAGGAUCACCCAUGUAUGCUUGGAUCAUGCCGGAGAAGGUCACGAAUGAUU [JR_SS002_Sub1214] (Eterna round: R96, puzzle: Same State 2) |  |  |  | 0.017 µM | 0.0199 µM | 0.0329 µM |
| GGAGCCGGUACUGAGGAUAUUCAUAUUAAAACAUGAGGAUCACCCAUGUAGGCCAGAAGGCCUUGGGAGAAGGCAGGCCAGCUCG [Atgexeedri - 4] (puzzle: Same State 2) | 0.0202 µM | 0.27 µM | 0.458 µM |  |  |  |
| AUUAAACAUGAGGAUCACCCAUGUCAACAAAGUCGAGGAUAUGGGCAAAUAAAAUAAGAACCAGAAGGCGAUUAAU [salish99_ss1_r3_078] (puzzle: Same State 1) | 0.0187 µM | 0.109 µM | 0.0957 µM |  |  |  |
| GCGAGCGUACUUGCAGACAUGAGGAUCACCCAUGUAAAUGGGAAGGAUAUGGUACCGUUUCGGUACCAGAAGGUCCUAAGUGAG [JL SSNG3 1.49] (Eterna round: R96, puzzle: Same State NG 3) |  |  |  | 0.129 µM | 0.702 µM | 0.646 µM |
